The source of these data is US20150315275A1 (AstraZeneca / MedImmune, published 2015).

Numbering of substitutions follows the chain as printed. Numbers in names are those of the source. Where “and” joins values, the source holds several entries; their conditions need not be identical. Equal values may be shown once.

T1: human B7-H4 expressed on cells (human, UniProt Q7Z7D3 25-282)
T1 construct: the cell line is named under assay or readout; also called full length human B7-H4 on HEK293 cells; 293T.hB7-H4
T1 sequence: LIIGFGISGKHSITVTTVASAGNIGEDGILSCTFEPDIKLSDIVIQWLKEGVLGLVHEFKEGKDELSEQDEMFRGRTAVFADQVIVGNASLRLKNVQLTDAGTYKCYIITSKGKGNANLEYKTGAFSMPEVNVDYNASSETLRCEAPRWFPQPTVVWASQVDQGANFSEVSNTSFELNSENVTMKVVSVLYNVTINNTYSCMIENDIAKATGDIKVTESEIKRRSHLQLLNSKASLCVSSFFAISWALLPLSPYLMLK

T2: B7-H4ECD his-tagged protein (Sinobiologics) (human, UniProt Q7Z7D3 25-259)
T2 construct: Bought protein; Result paragraph calls the target human B7-H4; also called B7-H4 extracellular domain; not shown: his tag
T2 sequence: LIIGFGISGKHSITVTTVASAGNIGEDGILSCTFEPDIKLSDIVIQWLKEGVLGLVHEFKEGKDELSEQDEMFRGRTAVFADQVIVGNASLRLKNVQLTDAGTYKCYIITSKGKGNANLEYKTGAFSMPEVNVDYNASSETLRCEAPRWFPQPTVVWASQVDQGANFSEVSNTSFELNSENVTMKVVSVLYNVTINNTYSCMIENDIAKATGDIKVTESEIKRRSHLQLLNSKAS

T3: mouse B7-H4ECD mIgG2a Fc fusion protein (mouse, UniProt Q7TSP5 25-257, limits assumed)
T3 construct: also called mouse B7-H4-mIg fusion protein; Mouse B7-H4-mouse-Ig Fusion Protein; not shown: mouse IgG2a Fc
T3 sequence: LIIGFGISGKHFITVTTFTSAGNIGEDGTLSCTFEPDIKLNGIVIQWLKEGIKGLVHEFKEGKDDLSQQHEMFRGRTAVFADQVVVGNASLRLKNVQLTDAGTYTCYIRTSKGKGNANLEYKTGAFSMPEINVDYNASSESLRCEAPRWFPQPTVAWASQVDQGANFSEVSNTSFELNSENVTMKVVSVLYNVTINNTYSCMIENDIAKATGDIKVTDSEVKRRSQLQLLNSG

B1: humanized 6H3 variant 4 (antibody, V domains shown)
VH: EVQLVQSGAEMKKPGASVKVSCKASGYTFTDYYMNWVRQAPGQSLEWIGVINPYNGDTTYNQKFQGRVTVTVDKSATTAYMELSSLRSEDTAVYYCARYPESTYWGQGTLVTVSS
VL: DVVMTQSPLSLPVTLGQPASISCRSSQSLVHINGNTYLHWYQQRPGQSPRVLIYKVSNRFSGVPDRFSGSGSGTDFTLKISRVEAEDVGVYFCSQSTHVPLTFGGGTKVEIK
notes: also called V4; Variant 4 (antibody)
B2: humanized 6H3 variant 13 (antibody, V domains shown)
VH: B1 VH with I48M, T71A
VL: B1 VL with V2I, S7T, Q42L, R50K, G105A
notes: also called V13; H2B L2C
B3: humanized 6H3 variant 6 (antibody, V domains shown)
VH: B1 VH with I48M, T71A
VL: B1 VL with Q42L, R50K
notes: also called V6; Variant 6 (antibody)
B4: humanized 6H3 variant 11 (antibody, V domains shown)
VH: B1 VH
VL: B1 VL with V2I, S7T, G105Q
notes: also called V11; H2C L2B
B5: humanized 6H3 variant 9 (antibody, V domains shown)
VH: B1 VH with M11V, S44G, V50I, T59S, Q65K, V70L, A76T, T77S
VL: B1 VL with V2I, S7T, G105Q
notes: also called V9; 6H3 V9
B6: humanized 6H3 variant 3 (antibody, V domains shown)
VH: B1 VH with I48M, T71A
VL: B1 VL
notes: also called V3; H2B L1B
B7: humanized 6H3 variant 14 (antibody, V domains shown)
VH: B1 VH
VL: B1 VL with V2I, S7T, Q42L, R50K, G105A
notes: also called V14; 6H3 V14
B8: humanized 6H3 variant 2 (antibody, V domains shown)
VH: B1 VH with M11V, S44G, V50I, T59S, Q65K, V70L, A76T, T77S
VL: B1 VL
notes: also called V2; 6H3 V2
B9: humanized 6H3 variant 10 (antibody, V domains shown)
VH: B1 VH with I48M, T71A
VL: B1 VL with V2I, S7T, G105Q
notes: also called V10; H2B L2B
B10: humanized 6H3 variant 5 (antibody, V domains shown)
VH: B1 VH with M11V, S44G, V50I, T59S, Q65K, V70L, A76T, T77S
VL: B1 VL with Q42L, R50K
notes: also called V5; Variant 5 (antibody)
B11: humanized 6H3 variant 7 (antibody, V domains shown)
VH: B1 VH
VL: B1 VL with Q42L, R50K
notes: also called V7; 6H3 V7
B12: humanized 6H3 variant 1 (antibody, V domains shown)
VH: QVQLVQSGAEVKKPGASVKVSCKASGYTFTDYYMHWVRQAPGQGLEWMGIINPYNGDTSYAQKFQGRVTMTRDTSTSTVYMELSSLRSEDTAVYYCARYPESTYWGQGTLVTVSS
VL: B1 VL
notes: also called V1; H1A L1B
B13: humanized 6H3 variant 8 (antibody, V domains shown)
VH: B12 VH
VL: B1 VL with V2I, S7T, G105Q
notes: also called V8; H1A L2B

The first assay deals with T1, human B7-H4 expressed on cells. In words: flow cytometry on HEK293.hB7-H4 transfectants, one-site specific binding fit. The protocol: For each staining, 0.2 million HEK293.hB7-H4 transfectants were resuspended in 100 μl flow cytometry buffer (PBS+2% FBS). A serial dilution of chimeric 6H3 and 14 humanized variants of 0, 0.1 ng, 0.3 ng, 1 ng, 3 ng, 10 ng, 30 ng, 100 ng, 300 ng, 1 μg, 3 μg and 10 μg were added to the cells and incubated at 4° C. for 30 min. Cells were then washed twice with 2 ml flow cytometry buffer, and resuspended in 100 μl flow cytometry buffer. 1 μl anti-hIg PE secondary antibody (Biolegend) was added and incubated with the cells for 15 mins Samples were then washed and resuspended in 100 μl flow cytometry buffer. Flow Cytometry data was acquired using BD Canto (BD Biosciences) in plate format and analyzed by FlowJo software. Staining data (MFI) was then input into Prism 5 software to generate binding curve. Curve-fit using one-site specific binding algorithm calculates individual KD for each variant.
With B1, the “Bmax(MFI)” value came out at 580 MFI and the Kd was 5.2 nM.
For B2, the “Bmax(MFI)” value was determined as 648 MFI and the equilibrium dissociation constant (Kd) came out at 7 nM.
For B3 the same measures were 526 MFI and 5 nM.
For B4, the “Bmax(MFI)” value was 648 MFI and the Kd stood at 6.9 nM.
In the same order, the values of B5 are 553 MFI and 1.8 nM.
Regarding B6, the “Bmax(MFI)” value stood at 583 MFI and the dissociation constant Kd turned out to be 6 nM.
Consider B7, for which the “Bmax(MFI)” value stood at 629 MFI and the dissociation constant (Kd) stood at 5.8 nM.
In the same order, the values of B8 are 603 MFI and 2.4 nM.
For B9, the “Bmax(MFI)” value was determined as 662 MFI and the Kd worked out at 5.5 nM.
In the same order, the values of B10 are 646 MFI and 4.2 nM.
As to B11, the “Bmax(MFI)” value was 513 MFI and the equilibrium dissociation constant (Kd) was determined as 6.5 nM.

The next assay has as its target T4, B7-H4-Ig fusion protein (human).
T4 construct: also called human B7-H4 Ig
In words: competition ELISA on B7-H4-Ig-coated plate, Plate 1; competitor biotinylated mouse 6H3 (5 ng/ml). How it is done: (§1) A 12-point, 3-fold dilution series of 14 humanized 6H3 antibody variants was prepared ranging from 100 μg/ml to 0.5 ng/ml. Dilutions were prepared in assay diluent containing biotinylated mouse anti-human B7-H4 6H3 (SEQ ID NOS:3 and 5 for light chain variable region and heavy chain variable region respectively) at 5 ng/ml. Antibodies were allowed to bind to B7-H4-Ig-coated assay plates (200 ng/well) for 1 hour at room temperature and detected with streptavidin HRP.
Regarding B1, the EC50 is 2.95 µg/mL and 19.7 nM.
In the case of B3, the EC50 was 2.53 µg/mL and 16.9 nM.
On the same count and under the same terms, in the case of B6 it was 3.09 µg/mL and 20.6 nM.
Take B8: the half-maximal effective concentration (EC50) was 2.46 µg/mL and 16.4 nM.
Turning to B10, the concentration for a half-maximal effect (EC50) is 3.62 µg/mL and 24.2 nM.
With B11, the concentration giving a half-maximal response (EC50) was 2.63 µg/mL and 17.5 nM.

The target in another assay is T2, B7-H4ECD his-tagged protein …. In words: ELISA, B7-H4ECD his-tagged protein coated. The protocol:
100 μl 1 μg/ml B7-H4ECD his-tagged protein (Sinobiologics) diluted in PBS was immobilized on flat bottom 96 well plate (Costar 9017) overnight at 4° C. Plates were washed twice with PBS+0.1% PS-20 and blocked with 200 μl/well PBS 10% FBS at RT for 1 hr. 100 μl chimeric 6H3 and 14 selected 6H3 humanized variants diluted in PBS 10% FBS were added to each well and incubated at RT for 1 hr. Plates were washed three times and 100 μl 1 μg/ml anti-human Ig HRP (Sigma) was added to each well and incubated at RT for 1 hr. Plates were washed six times and 100 μl TMB substrate (SurModics) was added to each well for 5-15 mins 100 μl stop solution (0.1M Sulfuric acid) was added to each well. Plates were read at Absorbance 450 nm by PerkinElmer EnVision 2104 Multilabel Reader.
The molecule B1 gave an EC50 of 1.16 nM.
The same measure, in the same setting: for B2 the value was 0.92 nM; for B3, 1.64 nM; for B4, 0.97 nM.
With B5, the midpoint of the response, the EC50, lay at 0.75 nM.
Turning to B6, the half-maximal effective concentration (EC50) amounted to 1.19 nM.
As for B7, the EC50 worked out at 0.68 nM.
In turn, B8 yielded an EC50 of 0.51 nM.
With B9, the EC50 was 0.89 nM.
B10 gave a concentration giving a half-maximal response (EC50) of 0.95 nM.
The molecule B11 registered a 50% effective concentration (EC50) of 1.07 nM.

For the next assay, the target named is T4, B7-H4-Ig fusion protein. Put plainly: competition ELISA on B7-H4-Ig-coated plate, Plate 2; competitor biotinylated mouse 6H3 (5 ng/ml). The protocol:
as §1
As for B2, the concentration for a half-maximal effect (EC50) was 2.11 µg/mL and 14.1 nM.
Take B4: the EC50 was 2.2 µg/mL and 14.7 nM.
B5: the EC50 is 2.69 µg/mL and 17.9 nM.
Same read-out and setting: in the case of B7 it was 2.49 µg/mL and 16.6 nM; in that of B9, 2.13 µg/mL and 14.2 nM.

For another assay, the target named is T3, mouse B7-H4ECD mIgG2a Fc fusion protein. Put plainly: ELISA, mouse B7-H4ECD mIgG2a Fc fusion coated. The protocol:
100 μg/ml mouse B7-H4ECD mIgG2a Fc fusion protein diluted in PBS was immobilized on flat bottom 96 well plate (Costar 9017) overnight at 4° C. Plates were washed twice with PBS+0.1% PS-20 and blocked with 200 μl/well PBS 10% FBS at RT for 1 hr. 100 μl chimeric 6H3 and 14 selected 6H3 humanized variants diluted in PBS 10% FBS were added to each well and incubated at RT for 1 hr. Plates were washed three times and 100 μl 1 μg/ml anti-human Ig HRP (Sigma) was added to each well and incubated at RT for 1 hr. Plates were washed six times and 100 μl TMB substrate (SurModics) was added to each well for 5-15 mins 100 μl stop solution (0.1M Sulfuric acid) was added to each well. Plates were read at Absorbance 450 nm by PerkinElmer EnVision 2104 Multilabel Reader.
B1: the response was half-maximal at 0.08 nM (EC50).
B12 came in with an EC50 of 0.1 nM.
Turning to B13, the EC50 was found to be 0.06 nM.
Consider B2, for which the midpoint of the response, the EC50, lay at 0.13 nM.
In the case of B3, the 50% effective concentration (EC50) was 0.13 nM.
B4: the half-maximal effective concentration (EC50) amounted to 0.11 nM.
On to B5, for which the EC50 is 0.07 nM.
For B6, the response was half-maximal at 0.1 nM (EC50).
For the molecule B7, the half-maximal effective concentration (EC50) was found to be 0.11 nM.
Regarding B8, a half-maximal effect (EC50) was put at 0.08 nM.
Same read-out and setting: in the case of B9 it was 0.13 nM.
B10 yielded an EC50 of 0.05 nM.
For the molecule B11, the EC50 came to 0.11 nM.

The target in another assay is T1, human B7-H4 expressed on cells. Put plainly: saturation binding, flow cytometry on 624mel/B7-H4 cells, biotinylated mAb, azide-treated cells; unit not given. How it is done: A saturation binding experiment was carried out on 624mel/B7-H4 cells using the chimeric 6H3 mAb and humanized variants of 6H3. Briefly, 50,000 cells were pretreated with 0.1% azide on ice for 30 minutes to inhibit B7-H4 internalization then stained for 30 minutes with biotinylated anti-B7-H4 mAbs. The mAbs were diluted in a 12-point, 3-fold dilution series ranging from 200 μg/ml down to 1 ng/ml. Cell were stained with streptavidin PE for 10 minutes, washed, fixed and analyzed by flow cytometry.
FIGS. 35A-35B are binding curves for the raw (FIG. 35A) and background subtracted data (FIG. 35B). […] The subtracted values were used to determine the Kd and Bmax. The antibodies appear to fall into two groups based on Kd values (Table 10).
On to B3, for which the Bmax came out at 6420.
The molecule B5 gave a Bmax of 4610.
For B7, the Bmax is 5580.
Turning to B8, the Bmax came to 4650.
Still for that read-out and setting: in the case of B11 it was 6080.
